Experimental data from doi:10.1101/2022.10.20.22281069 (medRxiv, 2022).

Target: PCNA-WT (Proliferating Cell Nuclear Antigen, wild type) (human, UniProt P12004 1-261)
Assay: ITC

PCNA-WT (Proliferating Cell Nuclear Antigen, wild type), sequence (P12004 whole entry): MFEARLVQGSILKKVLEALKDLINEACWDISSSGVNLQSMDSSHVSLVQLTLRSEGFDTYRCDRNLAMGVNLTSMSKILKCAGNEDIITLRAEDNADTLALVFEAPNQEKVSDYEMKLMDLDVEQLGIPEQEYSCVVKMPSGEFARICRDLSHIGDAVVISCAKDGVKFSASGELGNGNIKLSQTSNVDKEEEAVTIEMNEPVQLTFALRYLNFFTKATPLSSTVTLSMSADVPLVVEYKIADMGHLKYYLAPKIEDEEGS

| Binder | binding result |
| --- | --- |
| DKSGMKSIDTFFGVKNKKKIGKV [RNaseH2B PIP-box peptide] | binds |
| KANRQVSITGFFQRK [pol δ p66 PIP-box peptide] | binds |
| STQGRLDDFFKVTGSL [FEN1 PIP-box peptide] | binds |
